Experimental data from paper PMC7402622 (Science (New York, N.y.), 2020).

B1: H014 humanized monoclonal antibody (IgG) (antibody, V domains shown)
VH: EVQLVQSGAEVKKPGATVKISCKVSGYSFSNYYIHWVKQAPGKSLEWIGYIDPFNGGTSDNLKFKGAATLTADTSTDTAYMELSSLRSEDTAVYYCARSEYDPYYVMDYWGQGTTVTVSS
VL: IVLTQSPFQSVSPKEKVTITCRASQSISSNLHWYQQKPDQSPKLLIKYASQSISGIPSRFSGSGSGTDFTLTINSLEAEDFGIYFCQQTNFWPYIFGQGTKLEIL
B2: H014 Fab fragment (Fab, V domains shown)
VH: B1 VH
VL: B1 VL

Experiments:
[1] = target: T1, stabilized SARS-CoV-2 S ectodomain trimer (SARS-CoV-2, Wuhan-Hu-1 (GenBank …, UniProt P0DTC2, stabilised)); experiment: SPR
[2] = target: T1, stabilized SARS-CoV-2 S ectodomain …; experiment: cryo-EM structure

Row | Binder | binding result [1] | binding result [2]
1 | B1 | binds | –
2 | B2 | – | binds
